Consider one substance from article PMC8055535.

The target of the test is light-dependent protochlorophyllide oxidoreductase (LPOR), Zea mays (Zea mays (endogenous in maize etioplasts)). In words: cryo-EM structure; electron cryo-tomography and subtomogram averaging of membrane tubes from ruptured maize etioplasts, native membranes; low-salt pH 8.0 buffer with 150 mM trehalose in place of sorbitol; tube averages at 18.2 and 18.1 Å, sub-boxes of dimers at 9 Å.

As usually defined, the stoichiometry N is a count of units in the complex or per binding partner.

Consider “light-dependent protochlorophyllide oxidoreductase (LPOR), Zea mays (enzyme)”, for which the stoichiometry N amounted to 2.
